Columns and labels:
HeLa Kyoto [1] = assay: solubility in G1/S (NP-40 vs SDS abundance) (log2 ratio); higher = more soluble; conditions: cell cycle stage: G1/S
HeLa Kyoto [2] = assay: melting temperature (median over replicates), in situ; higher = more thermally stable
HeLa Kyoto [3] = assay: solubility change mitosis vs G1/S (difference of NP-40 vs SDS log2 ratios) (log2 ratio difference); higher = more soluble in mitosis
HeLa Kyoto [4] = assay: thermal stability score vs G1/S (z-score of summed log2 fold changes over temperatures); higher = more thermally stable than in G1/S
[5] = cell cycle stage: early G1 (4.5 h after nocodazole release)
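Throughout, for melting temperature (median over replicates), in situ: HeLa Kyoto cells synchronized by double thymidine or nocodazole block, proteins quantified by TMT10plex mass spectrometry, three independent biological replicates.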
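Throughout, for solubility change mitosis vs G1/S (difference of NP-40 vs SDS log2 ratios): synchronized HeLa Kyoto cells (double thymidine block for G1/S, nocodazole release for mitosis), protein amounts in NP-40 versus SDS lysates quantified by mass spectrometry, three biological replicates.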
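Throughout, for solubility in G1/S (NP-40 vs SDS abundance): HeLa Kyoto cells arrested at G1/S by double thymidine block, proteins quantified by TMT10plex mass spectrometry in mild NP-40 versus SDS extracts, three biological replicates.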
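Throughout, for thermal stability score vs G1/S (z-score of summed log2 fold changes over temperatures): synchronized HeLa Kyoto cells, proteins quantified by TMT10plex mass spectrometry, three biological replicates, mitosis taken 0.5 h after nocodazole release, G1/S directly after double thymidine block.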

| Sequence | solubility in G1/S (log2) (HeLa Kyoto [1]) | melting temperature (HeLa Kyoto [2]; cell cycle stage: G1/S) [°C] | melting temperature (HeLa Kyoto [2]; cell cycle stage: mitosis) [°C] | solubility change mitosis (log2) (HeLa Kyoto [3]) | thermal stability score (HeLa Kyoto [4]; [5]) | thermal stability score (HeLa Kyoto [4]; cell cycle stage: mitosis) |
| --- | --- | --- | --- | --- | --- | --- |
| MVSHGSSPSLLEALSSDFLACKICLEQLRAPKTLPCLHTYCQDCLAQLADGGRVRCPECRETVPVPPEGVASFKTNFFVNGLLDLVKARACGDLRAGKPACALCPLVGGTSTGGPATARCLDCADDLCQACADGHRCTRQTHTHRVVDLVGYRAGWYDEEARERQAAQCPQHPGEALRFLCQPCSQLLCRECRLDPHLDHPCLPLAEAVRARRPGLEGLLAGVDNNLVELEAARRVEKEALARLREQAARVGTQVEEAAEGVLRALLAQKQEVLGQLRAHVEAAEEAARERLAELEGREQVARAAAAFARRVLSLGREAEILSLEGAIAQRLRQLQGCPWAPGPAPCLLPQLELHPGLLDKNCHLLRLSFEEQQPQKDGGKDGAGTQGGEESQSRREDEPKTERQGGVQPQAGDGAQTPKEEKAQTTREEGAQTLEEDRAQTPHEDGGPQPHRGGRPNKKKKFKGRLKSISREPSPALGPNLDGSGLLPRPIFYCSFPTRMPGDKRSPRITGLCPFGPREILVADEQNRALKRFSLNGDYKGTVPVPEGCSPCSVAALQSAVAFSASARLYLINPNGEVQWRRALSLSQASHAVAALPSGDRVAVSVAGHVEVYNMEGSLATRFIPGGKASRGLRALVFLTTSPQGHFVGSDWQQNSVVICDGLGQVVGEYKGPGLHGCQPGSVSVDKKGYIFLTLREVNKVVILDPKGSLLGDFLTAYHGLEKPRVTTMVDGRYLVVSLSNGTIHIFRVRSPDS [TRIM56] | -0.379 | 52.4 | 50.7 | 0.0648 | 0.0282 | 0.527 |
| MVSPATRKSLPKVKAMDFITSTAILPLLFGCLGVFGLFRLLQWVRGKAYLRNAVVVITGATSGLGKECAKVFYAAGAKLVLCGRNGGALEELIRELTASHATKVQTHKPYLVTFDLTDSGAIVAAAAEILQCFGYVDILVNNAGISYRGTIMDTTVDVDKRVMETNYFGPVALTKALLPSMIKRRQGHIVAISSIQGKMSIPFRSAYAASKHATQAFFDCLRAEMEQYEIEVTVISPGYIHTNLSVNAITADGSRYGVMDTTTAQGRSPVEVAQDVLAAVGKKKKDVILADLLPSLAVYLRTLAPGLFFSLMASRARKERKSKNS [DHRS7B] | -0.22 | 51.6 | 51.4 | -0.121 | -0.951 | -0.984 |
| MVSVINTVDTSHEDMIHDAQMDYYGTRLATCSSDRSVKIFDVRNGGQILIADLRGHEGPVWQVAWAHPMYGNILASCSYDRKVIIWREENGTWEKSHEHAGHDSSVNSVCWAPHDYGLILACGSSDGAISLLTYTGEGQWEVKKINNAHTIGCNAVSWAPAVVPGSLIDHPSGQKPNYIKRFASGGCDNLIKLWKEEEDGQWKEEQKLEAHSDWVRDVAWAPSIGLPTSTIASCSQDGRVFIWTCDDASSNTWSPKLLHKFNDVVWHVSWSITANILAVSGGDNKVTLWKESVDGQWVCISDVNKGQGSVSASVTEGQQNEQ [SEC13] | -0.204 | 50.5 | 50.4 | -0.09 | -0.768 | -0.265 |
| MVVTRSARAKASIQAASAESSGQKSFAANGIQAHPESSTGSDARTTAESQTTGKQSLIPRTPKARKRKSRTTGSLPKGTEPSTDGETSEAESNYSVSEHHDTILRVTRRRQILIACSPVSSVRKKPKVTPTKESYTEEIVSEAESHVSGISRIVLPTEKTTGARRSKAKSLTDPSQESHTEAISDAETSSSDISFSGIATRRTRSMQRKLKAQTEKKDSKIVPGNEKQIVGTPVNSEDSDTRQTSHLQARSLSEINKPNFYNNDFDDDFSHRSSENILTVHEQANVESLKETKQNCKDLDEDANGITDEGKEINEKSSQLKNLSELQDTSLQQLVSQRHSTPQNKNAVSVHSNLNSEAVMKSLTQTFATVEVGRWNNNKKSPIKASDLTKFGDCGGSDDEEESTVISVSEDMNSEGNVDFECDTKLYTSAPNTSQGKDNSVLLVLSSDESQQSENSENEEDTLCFVENSGQRESLSGDTGSLSCDNALFVIDTTPGMSADKNFYLEEEDKASEVAIEEEKEEEEDEKSEEDSSDHDENEDEFSDEEDFLNSTKAKLLKLTSSSIDPGLSIKQLGGLYINFNADKLQSNKRTLTQIKEKKKNELLQKAVITPDFEKNHCVPPYSESKYQLQKKRRKERQKTAGDGWFGMKAPEMTNELKNDLKALKMRASMDPKRFYKKNDRDGFPKYFQIGTIVDNPADFYHSRIPKKQRKRTIVEELLADSEFRRYNRRKYSEIMAEKAANAAGKKFRKKKKFRN [DNTTIP2] | -2.06 | 48.9 | 52.4 | 1.04 | 2.7 | 4.77 |
| MVWDRQTKMEYEWKPDEQGLQQILQLLKESQSPDTTIQRTVQQKLEQLNQYPDFNNYLIFVLTKLKSEDEPTRSLSGLILKNNVKAHFQNFPNGVTDFIKSECLNNIGDSSPLIRATVGILITTIASKGELQNWPDLLPKLCSLLDSEDYNTCEGAFGALQKICEDSAEILDSDVLDRPLNIMIPKFLQFFKHSSPKIRSHAVACVNQFIISRTQALMLHIDSFIENLFALAGDEEPEVRKNVCRALVMLLEVRMDRLLPHMHNIVEYMLQRTQDQDENVALEACEFWLTLAEQPICKDVLVRHLPKLIPVLVNGMKYSDIDIILLKGDVEEDETIPDSEQDIRPRFHRSRTVAQQHDEDGIEEEDDDDDEIDDDDTISDWNLRKCSAAALDVLANVYRDELLPHILPLLKELLFHHEWVVKESGILVLGAIAEGCMQGMIPYLPELIPHLIQCLSDKKALVRSITCWTLSRYAHWVVSQPPDTYLKPLMTELLKRILDSNKRVQEAACSAFATLEEEACTELVPYLAYILDTLVFAFSKYQHKNLLILYDAIGTLADSVGHHLNKPEYIQMLMPPLIQKWNMLKDEDKDLFPLLECLSSVATALQSGFLPYCEPVYQRCVNLVQKTLAQAMLNNAQPDQYEAPDKDFMIVALDLLSGLAEGLGGNIEQLVARSNILTLMYQCMQDKMPEVRQSSFALLGDLTKACFQHVKPCIADFMPILGTNLNPEFISVCNNATWAIGEISIQMGIEMQPYIPMVLHQLVEIINRPNTPKTLLENTAITIGRLGYVCPQEVAPMLQQFIRPWCTSLRNIRDNEEKDSAFRGICTMISVNPSGVIQDFIFFCDAVASWINPKDDLRDMFCKILHGFKNQVGDENWRRFSDQFPLPLKERLAAFYGV [TNPO1] | -0.146 | 50.3 | 49.7 | -0.175 | 1.15 | -1.3 |
| MVWKVAVFLSVALGIGAVPIDDPEDGGKHWVVIVAGSNGWYNYRHQADACHAYQIIHRNGIPDEQIVVMMYDDIAYSEDNPTPGIVINRPNGTDVYQGVPKDYTGEDVTPQNFLAVLRGDAEAVKGIGSGKVLKSGPQDHVFIYFTDHGSTGILVFPNEDLHVKDLNETIHYMYKHKMYRKMVFYIEACESGSMMNHLPDNINVYATTAANPRESSYACYYDEKRSTYLGDWYSVNWMEDSDVEDLTKETLHKQYHLVKSHTNTSHVMQYGNKTISTMKVMQFQGMKRKASSPVPLPPVTHLDLTPSPDVPLTIMKRKLMNTNDLEESRQLTEEIQRHLDARHLIEKSVRKIVSLLAASEAEVEQLLSERAPLTGHSCYPEALLHFRTHCFNWHSPTYEYALRHLYVLVNLCEKPYPLHRIKLSMDHVCLGHY [LGMN] | 0.416 | 53.8 | 54.2 | -0.0973 | 5.08 | 5.7 |
| MWIQVRTIDGSKTCTIEDVSRKATIEELRERVWALFDVRPECQRLFYRGKQLENGYTLFDYDVGLNDIIQLLVRPDPDHLPGTSTQIEAKPCSNSPPKVKKAPRVGPSNQPSTSARARLIDPGFGIYKVNELVDARDVGLGAWFEAHIHSVTRASDGQSRGKTPLKNGSSCKRTNGNIKHKSKENTNKLDSVPSTSNSDCVAADEDVIYHIQYDEYPESGTLEMNVKDLRPRARTILKWNELNVGDVVMVNYNVESPGQRGFWFDAEITTLKTISRTKKELRVKIFLGGSEGTLNDCKIISVDEIFKIERPGAHPLSFADGKFLRRNDPECDLCGGDPEKKCHSCSCRVCGGKHEPNMQLLCDECNVAYHIYCLNPPLDKVPEEEYWYCPSCKTDSSEVVKAGERLKMSKKKAKMPSASTESRRDWGRGMACVGRTRECTIVPSNHYGPIPGIPVGSTWRFRVQVSEAGVHRPHVGGIHGRSNDGAYSLVLAGGFADEVDRGDEFTYTGSGGKNLAGNKRIGAPSADQTLTNMNRALALNCDAPLDDKIGAESRNWRAGKPVRVIRSFKGRKISKYAPEEGNRYDGIYKVVKYWPEISSSHGFLVWRYLLRRDDVEPAPWTSEGIERSRRLCLRLQYPAGYPSDKEGKKPKGQSKKQPSGTTKRPISDDDCPSASKVYKASDSAEAIEAFQLTPQQQHLIREDCQNQKLWDEVLSHLVEGPNFLKKLEQSFMCVCCQELVYQPVTTECFHNVCKDCLQRSFKAQVFSCPACRHDLGQNYIMIPNEILQTLLDLFFPGYSKGR [UHRF2] | -0.401 | 44.3 | 46.9 | 0.175 | 2.81 | 4.34 |
| MWKLLPAAGPAGGEPYRLLTGVEYVVGRKNCAILIENDQSISRNHAVLTANFSVTNLSQTDEIPVLTLKDNSKYGTFVNEEKMQNGFSRTLKSGDGITFGVFGSKFRIEYEPLVACSSCLDVSGKTALNQAILQLGGFTVNNWTEECTHLVMVSVKVTIKTICALICGRPIVKPEYFTEFLKAVESKKQPPQIESFYPPLDEPSIGSKNVDLSGRQERKQIFKGKTFIFLNAKQHKKLSSAVVFGGGEARLITEENEEEHNFFLAPGTCVVDTGITNSQTLIPDCQKKWIQSIMDMLQRQGLRPIPEAEIGLAVIFMTTKNYCDPQGHPSTGLKTTTPGPSLSQGVSVDEKLMPSAPVNTTTYVADTESEQADTWDLSERPKEIKVSKMEQKFRMLSQDAPTVKESCKTSSNNNSMVSNTLAKMRIPNYQLSPTKLPSINKSKDRASQQQQTNSIRNYFQPSTKKRERDEENQEMSSCKSARIETSCSLLEQTQPATPSLWKNKEQHLSENEPVDTNSDNNLFTDTDLKSIVKNSASKSHAAEKLRSNKKREMDDVAIEDEVLEQLFKDTKPELEIDVKVQKQEEDVNVRKRPRMDIETNDTFSDEAVPESSKISQENEIGKKRELKEDSLWSAKEISNNDKLQDDSEMLPKKLLLTEFRSLVIKNSTSRNPSGINDDYGQLKNFKKFKKVTYPGAGKLPHIIGGSDLIAHHARKNTELEEWLRQEMEVQNQHAKEESLADDLFRYNPYLKRRR [NBN] | -0.0211 | 48.7 | 49.7 | -0.152 | 0.727 | 1.8 |
| MWLQQRLKGLPGLLSSSWARRLLCLLGLLLLLLWFGGSGARRAAGGLHLLPWSRGEPGAAEPSACLEAATRAWRGLRERGEVVPLGPGVPALVANGFLALDVAANRLWVTPGEREPAVAPDFVPFVQLRPLSALAEAGEAVLLLREGLLRRVRCLQLGSPGPGPVAAGPGPASVSGLAAGSGRDCVLLQEDFLAHRGRPHVYLQRIQLNNPTERVAALQTVGPTAGPAPKAFTSTLEKVGDHQFLLYSGRSPPTPTGLVHLVVVAAKKLVNRLQVAPKTQLDETVLWVVHVSGPINPQVLKSKAAKELKALQDLARKEMLELLDMPAAELLQDHQLLWAQLFSPGVEMKKITDTHTPSGLTVNLTLYYMLSCSPAPLLSPSLSHRERDQMESTLNYEDHCFSGHATMHAENLWPGRLSSVQQILQLSDLWRLTLQKRGCKGLVKVGAPGILQGMVLSFGGLQFTENHLQFQADPDVLHNSYALHGIRYKNDHINLAVLADAEGKPYLHVSVESRGQPVKIYACKAGCLDEPVELTSAPTGHTFSVMVTQPITPLLYISTDLTHLQDLRHTLHLKAILAHDEHMAQQDPGLPFLFWFSVASLITLFHLFLFKLIYNEYCGPGAKPLFRSKEDPSV [KIAA2013] | -0.156 | 56.9 | 56.1 | -0.126 | -3.23 | -4.42 |

Source: the supplement of paper PMC5998384
